“Also recorded” adds a separate entry of the source.
Experiments:
[1] = Body weight and tolerability in LI1097 tumor-bearing mice; assay type: in vivo; conditions: for body weight loss observed in treated mice: mean; for tolerability / toxic events (in words): LI1097 tumor-bearing mice, antibody 20 and 50 mg/kg i.v., sorafenib 50 mg/kg p.o.
Procedure: When individual mouse has a body weight loss ≥20%, the mouse will be given dosing holiday(s) until its body weight recovers to the baseline.
All the procedures related to animal handling, care, and the treatment in this study were performed according to guidelines approved by the Institutional Animal Care and Use Committee (IACUC) of CrownBio following the guidance of the Association for Assessment and Accreditation of Laboratory Animal Care (AAALAC). At the time of routine monitoring, the animals were checked for any effects of tumor growth on normal behavior such as mobility, food and water consumption (by looking only), body weight gain/loss, eye/hair matting and any other abnormal effect. Death and observed clinical signs were recorded on the basis of the numbers of animals within each subset.
Under following conditions, the in-life experiment of individual animal or whole groups will be terminated, by humane euthanization, prior to death, or before reaching a comatose state. • In a continuing deteriorating condition with severe clinical signs of severe distress and/or pain, inaccessible to adequate food or water; • Significant body mass (emaciated) (>20%); • Individual mouse with tumor size exceeding 3000 mm^3 or MTV>2000 mm^3.

[2] = tested on: HuPrime® HCC xenograft model LI1097; experiment: Efficacy study in HuPrime HCC xenograft model LI1097 (tumor volume, TGI, T/C, T-C); assay type: in vivo, BALB/c nude mice; conditions: for Tumor Volume: mean ± SEM; for anti-tumor activity against HCC xenograft (in words): LI1097, compared with sorafenib
From the text: To evaluate preclinically the in vivo efficacy of GamaMabss' anti-AMHR2 monoclonal antibody, named GM102 in the treatment of Huprime® HCC xenograft model LI1097 in Balb/C nude mice. The model LI1097 was selected after a screening for AMHR2 transcription processed by CrownBio, using RNAseq (transcriptome sequencing). Further, AMHR2 membranous protein expression of this model was confirmed by Institut Curie, France, using IHC.
• Strain: BALB/c Nude • Age: 7-8 weeks (Treatment starting) • Gender: female • Total #: 32 mice plus spare
• HuPrime® Liver cancer model L11097 derived from a HCC patient was selected for this efficacy study. This model reached 1000 mm^3 in 20-25 days post inoculation.
• Product identification: GamaMabs's Ab (3C23K) • Manufacturer: GamaMabs Pharma • Lot number: R18H2-LP01 • Batch: 04GAM140513API • Quantity needed: 255 mg based on animal BW of 25 g with 50% spare • Package and storage condition: [30 ml/tube], 30 ml, [2-8° C.] • Concentration: 10.1 g/L • Product identification: Sorafenib • Manufacturer: Melonepharma • Lot number: D1111A • Quantity needed: 300 mg based on animal BW of 25 g with 50% spare • Package and storage condition: 400 mg, [RT]
Tumor fragments from stock mice inoculated with selected primary human cancer tissues were harvested and used for inoculation into BALB/c nude mice. Each mouse was inoculated subcutaneously at the right flank with primary human HCC model LI1097 fragment (R12P4, 2-4 mm in diameter) for tumor development on Jun. 9, 2015. The parent mouse number was #80150. #80151 and #80153. The mice were grouped when the average tumor size reached about 145 mm^3 on Jun. 24, 2015. Mice were allocated randomly into 4 experimental groups according to their tumor sizes. Each group consisted of 8 mice, 4 mice per cage. The day was denoted as day 0. The test articles were administered to the tumor-bearing mice from day 0 (Jun. 24, 2015) through day 27 (Jul. 21, 2015) according to pre-determined regimen shown in Section 1.1 Experimental Design.
Tumor size were measured twice weekly in two dimensions using a caliper, and the volume is expressed in mm^3 using the formula: TV=0.5 a×b^2, where a and b are the long and short diameters of the tumor, respectively. The tumor size is then used for calculations of TGI, T/C, and T-C values according to the description in the Table 2 in Abbreviations.
The study was ended after 28 days treatment and mice were sacrificed.
Summary statistics, including mean and the standard error of the mean (SEM), are provided for the tumor volume of each group at each time point. Statistical analysis of difference in tumor volume among the groups was evaluated using a one-way ANOVA followed by multiple comparisons using Games-Howell. All data were analyzed using SPSS 16.0. P<0.05 was considered to be statistically significant.

[3] = target: T1, AMHRII (form used for the Kd not stated) (human, UniProt Q16671 18-149, limits assumed)
T1 construct: Neither the construct nor the assay behind the Kd is described

[4] = tested on: Champions TumorGraft® model CTG-0401 (human colorectal cancer); experiment: Efficacy study in model CTG-0401 of human colorectal cancer; assay type: in vivo, Athymic Nude-Foxn1nu mice; conditions: 20 mg/kg IP BIWx4; comparator Irinotecan 100 mg/kg IP Q7Dx3; listed as GM102
Procedure: Stock mice (Athymic Nude-Foxn1^nu from Envigo) were implanted with tumor fragments from Champions TumorGraft® model CTG-0401. After the tumors reached 1000-1500 mm^3, they were harvested and the tumor fragments were implanted SC in the left flank of the female study mice. Each animal was implanted with a specific passage lot: passage 6 for CTG-0401. Tumor growth was monitored twice a week using digital calipers and the tumor volume (TV) was calculated using the formula (0.52×[length×width^2]). After the tumor volume reached 175±7 mm^3, mice were selected based on their tumor size and were randomly allocated into 4 groups of 12 animals per group (Day 0). After the initiation of dosing on Day 0, animals were weighed twice per week using a digital scale and TV was measured twice per week and also on the final day of study. The study was terminated when the mean tumor volume in the vehicle control group reached 1500 mm^3 or up to Day 60, whichever occurred first.

[5] = 50 mg/kg, QD × 4 weeks, p.o., day 13
[6] = 20 mg/kg, BIW × 4 weeks, i.v., day 13
[7] = 50 mg/kg, BIW × 4 weeks, i.v., day 13

T1 sequence (Q16671 18-149 limits assumed): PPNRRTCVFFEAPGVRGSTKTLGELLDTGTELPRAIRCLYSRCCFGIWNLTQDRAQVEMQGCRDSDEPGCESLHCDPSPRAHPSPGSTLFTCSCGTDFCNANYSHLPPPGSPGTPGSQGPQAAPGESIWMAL

CNC(=O)c1cc(Oc2ccc(NC(=O)Nc3ccc(Cl)c(C(F)(F)F)c3)cc2)ccn1 [Sorafenib, reference compound]
body weight change at study termination ([1]; 50 mg/kg, QD × 4 weeks, p.o.): −7.63% | mean maximum body weight loss ([1]; 50 mg/kg, QD × 4 weeks, p.o., day 27 of treatment): 7.63% | body weight loss observed in treated mice ([1]; 50 mg/kg, QD × 4 weeks, p.o.): 7% | body weight loss observed in treated mice ([1]; 50 mg/kg, QD × 4 weeks, p.o., listed as sorafenib): up to 7% | T-C (days) at 1000 mm^3 ([2]; 50 mg/kg, QD × 4 weeks, p.o.): 8 days | Tumor Volume ([2]; 50 mg/kg, QD × 4 weeks, p.o., day 0): 145.18 ± 16.97 mm^3 | Tumor Volume ([2]; 50 mg/kg, QD × 4 weeks, p.o., day 2): 321.35 ± 45.66 mm^3 | Tumor Volume ([2]; 50 mg/kg, QD × 4 weeks, p.o., day 6): 493.84 ± 65.13 mm^3 | Tumor Volume ([2]; 50 mg/kg, QD × 4 weeks, p.o., day 9): 695.20 ± 66.81 mm^3 | T/C (%) [2, 5]: 35.1% | TGI (%) [2, 5]: 64.9% | Tumor Volume [2, 5]: 891.50 ± 103.33 mm^3 | Tumor Volume ([2]; 50 mg/kg, QD × 4 weeks, p.o., day 16): 1135.40 ± 133.62 mm^3 | Tumor Volume ([2]; 50 mg/kg, QD × 4 weeks, p.o., day 20): 1478.84 ± 189.62 mm^3 | Tumor Volume ([2]; 50 mg/kg, QD × 4 weeks, p.o., day 23): 1627.4 ± 202.91 mm^3 | Tumor Volume ([2]; 50 mg/kg, QD × 4 weeks, p.o., day 27): 1829.66 ± 256.4 mm^3

B1: 3C23K anti-AMHRII monoclonal antibody (antibody, human IgG1, kappa, V domains shown)
VH: QVRLVQSGAEVKKPGASVKVSCKASGYTFTSYHIHWVRQAPGQRLEWMGWIYPGDDSTKYSQKFQGRVTITRDTSASTAYMELSSLRSEDTAVYYCTRGDRFAYWGQGTLVTVSS
VL: DIQMTQSPSTLSASVGDRVTITCRASSSVRYIAWYQQKPGKAPKLLTYPTSSLKSGVPSRFSGSGSGTEFTLTISSLQPDDFATYYCLQWSSYPWTFGGGTKVEIKR
notes: Humanized antibody; also called GM102; GamaMabs's Ab
Kd [3]: 55.3 pM

B2: 3C23K: humanized anti-AMHRII monoclonal antibody; VH SEQ ID NO 19, VL SEQ ID NO 36 (antibody, V domains shown)
VH: QVRLVQSGAEVKKPGASVKVSCKASGYTFTSYHIHWVRQAPGQRLEWMGWIYPGDDSTKYSQKFQGRVTITRDTSASTAYMELSSLRSEDTAVYYCTRGDRFAYWGQGTLVTVSS
VL: DIQMTQSPSTLSASVGDRVTITCRASSSVRYIAWYQQKPGKAPKLLTYPTSSLKSGVPSRFSGSGSGTEFTLTISSLQPDDFATYYCLQWSSYPWTFGGGTKVEIK
modifications: Synthetic 3C23K/3C23; Synthetic 3C23K
in vivo anti-tumor effect against AMHRII-expressing human colorectal tumor (in words, FIG. 10) [4]: efficient in vivo anti-tumor effect; also recorded: indistinguishable from the anti-tumor effect of the mainly used anti-colon cancer molecule Irinotecan | body weight change at study termination ([1]; 20 mg/kg, BIW × 4 weeks, i.v.): 2.68% | body weight change at study termination ([1]; 50 mg/kg, BIW × 4 weeks, i.v.): -0.38% | tolerability / toxic events (in words) [1]: no detectable toxic event | tolerability / toxic events (in words) ([1]; listed as GM102): not accompanied by any toxic event | tolerability / toxic events (in words) ([1]; listed as GamaMabs's Ab): No animal death or significant body weight loss; also recorded: well tolerated | T-C (days) at 1000 mm^3 ([2]; 20 mg/kg, BIW × 4 weeks, i.v.): 3 days | Tumor Volume ([2]; 20 mg/kg, BIW × 4 weeks, i.v., day 0): 145.15 ± 16.79 mm^3 | Tumor Volume ([2]; 20 mg/kg, BIW × 4 weeks, i.v., day 2): 358.57 ± 51.86 mm^3 | Tumor Volume ([2]; 20 mg/kg, BIW × 4 weeks, i.v., day 6): 665.09 ± 85.00 mm^3 | Tumor Volume ([2]; 20 mg/kg, BIW × 4 weeks, i.v., day 9): 952.12 ± 171.45 mm^3 | T/C (%) [2, 6]: 48.7% | TGI (%) ([2]; 20 mg/kg, BIW × 4 weeks, i.v., day 13, listed as GamaMabs's Ab): 51.3% | Tumor Volume [2, 6]: 1179.90 ± 232.26 mm^3 | Tumor Volume ([2]; 20 mg/kg, BIW × 4 weeks, i.v., day 16): 1479.51 ± 292.49 mm^3 | Tumor Volume ([2]; 20 mg/kg, BIW × 4 weeks, i.v., day 20): 1973.13 ± 372.07 mm^3 | Tumor Volume ([2]; 20 mg/kg, BIW × 4 weeks, i.v., day 23): 1814.59 ± 231.17 mm^3 | Tumor Volume ([2]; 20 mg/kg, BIW × 4 weeks, i.v., day 27): 2081.67 ± 213.28 mm^3 | T-C (days) at 1000 mm^3 ([2]; 50 mg/kg, BIW × 4 weeks, i.v.): 5 days | Tumor Volume ([2]; 50 mg/kg, BIW × 4 weeks, i.v., day 0): 145.24 ± 16.38 mm^3 | Tumor Volume ([2]; 50 mg/kg, BIW × 4 weeks, i.v., day 2): 297.78 ± 46.32 mm^3 | Tumor Volume ([2]; 50 mg/kg, BIW × 4 weeks, i.v., day 6): 532.71 ± 104.17 mm^3 | Tumor Volume ([2]; 50 mg/kg, BIW × 4 weeks, i.v., day 9): 751.81 ± 176.15 mm^3 | T/C (%) [2, 7]: 45.7% | TGI (%) ([2]; 50 mg/kg, BIW × 4 weeks, i.v., day 13, listed as GamaMabs's Ab): 54.3% | Tumor Volume [2, 7]: 1117.12 ± 302.85 mm^3 | Tumor Volume ([2]; 50 mg/kg, BIW × 4 weeks, i.v., day 16): 1476.74 ± 407.93 mm^3 | Tumor Volume ([2]; 50 mg/kg, BIW × 4 weeks, i.v., day 20): 1602.61 ± 481.85 mm^3 | Tumor Volume ([2]; 50 mg/kg, BIW × 4 weeks, i.v., day 23): 1148.22 ± 381.49 mm^3 | Tumor Volume ([2]; 50 mg/kg, BIW × 4 weeks, i.v., day 27): 1454.47 ± 479.27 mm^3 | anti-tumor activity against HCC xenograft (in words) [2]: of the same order of magnitude as sorafenib | anti-tumor activity against HCC xenograft (in words) ([2]; listed as GamaMabs's Ab): close to that induced by sorafenib

Reference: patent US20190367625A1, “AMHRII-BINDING COMPOUNDS FOR PREVENTING OR TREATING CANCERS” (GAMAMABS PHARMA, priority 2017, published 2019)
